The record followed here is patent publication US6998239B1, “Method for identifying a modulator of the binding of CCX CKR polypeptide to a chemokine” (ChemoCentryx, Inc., priority 1999, dated 2006).

Entries after “also recorded” stand apart in the source; their conditions may differ.

In experiment [1] the target is T1, CCX CKR (Homo sapiens, UniProt Q9NPB9).
T1 construct: Full length CCX CKR expression constructs were made in pIRESpuro expression vector; expressed in transfected cells
T1 sequence (Q9NPB9 1-350): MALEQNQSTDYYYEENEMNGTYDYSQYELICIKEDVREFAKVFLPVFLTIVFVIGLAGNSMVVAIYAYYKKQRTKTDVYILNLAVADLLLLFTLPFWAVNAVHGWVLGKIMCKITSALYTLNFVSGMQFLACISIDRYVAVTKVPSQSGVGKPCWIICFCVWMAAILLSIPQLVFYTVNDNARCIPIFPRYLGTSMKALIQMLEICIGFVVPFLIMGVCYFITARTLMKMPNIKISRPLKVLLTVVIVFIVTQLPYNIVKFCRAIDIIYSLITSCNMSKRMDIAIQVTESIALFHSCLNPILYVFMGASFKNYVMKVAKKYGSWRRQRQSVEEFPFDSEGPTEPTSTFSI
As to the kind of experiment: Ligand binding fingerprint: displacement of 125I-ELC from CCX CKR stable transfectants by cold chemokines. The note with it: cold competitor 200 nM; human and murine ELC, SLC, TECK; comparable with 125I-TECK. From the text:
(§1) In one embodiment, binding is detected as described by Dairaghi et al., 1997, J. Biol. Chem. 272:28206-209 (incorporated by reference in its entirety for all purposes) substituting CCX CKR transfectants for the CCR3 transfectants). In one embodiment, binding is detected using the filter based technique described by Dairaghi et al., 1999, J. Biol. Chem. 274:2156 (incorporated by reference in its entirety for all purposes), e.g., as shown in FIG. 4. Briefly, this technology employs expanded, efficiency-maximized radioligand binding utilizing filtration protocols. In these assays, 1×10^5 CCXCKR-293 HEK cells are incubated with […] (MlP3beta) (final concentration of ˜0.05 nM) in the presence of unlabeled chemokine for 3 h at 4° C. in 25 mM HEPES, 140 mM NaCl, 1 mM CaCl2, 5 mM MgCl2, and 0.2% bovine serum albumin, adjusted to pH 7.1. Reactions were aspirated onto PEI-treated GF/B glass filters using a cell harvester (Packard). Filters are washed twice (25 mM HEPES, 500 mM NaCl, 1 mM CaCl25 mM MgCl2, adjusted to pH 7.1) and scintillant (e.g., MicroScint 20; 50 μl) is added to dried filters and counted (e.g., using a Packard Topcount scintillation counter). The competition dose-response curves is analyzed by standard methods to determine IC50 values (e.g., using GraphPad Prism software (San Diego, Calif.)). Additionally, a Scatchard transformation can be used to estimate the receptor sites per cell (e.g., using WaveMetrics Igor software (Lake Oswego, Oreg.)).
In order to rapidly and thoroughly define a given chemokine receptor's ligand binding fingerprint, we have established an approach to comprehensively profile chemokine receptors using a large array of purified chemokines and chemokine variants. We used this approach to confirm independently the interaction of ELC and other chemokines with CCX CKR. Employing radioligand binding of ^125I-labeled-ELC or ^125I-TECK to CCX CKR stable transfectants, chemokine specificity for the new receptor was determined.
(§2) Binding analysis was carried out using efficiency-maximized radioligand binding utilizing filtration protocols designated “Displace Max” (Dairaghi et al., 1999, J Biol. Chem. 274:21569). In these assays, DisplaceMax employed the simultaneous interrogation of CCX CKR transfectants by >80 distinct purified chemokines in the ability to displace radiolabeled ELC or TECK, using the protocol described (Dairaghi et al., 1999, J Biol. Chem. 274:21569).

Experiment [2] addresses T1, CCX CKR. As to the kind of experiment: Radioligand binding competition with Scatchard transformation (binding constants). The note with it: for Affinity class of CCX CKR ligands (summary of Examples 4-6): summary statement.
From the text: as §1, §2
The binding interactions identified in the primary screen were examined quantitatively by extensive radioligand binding competition to CCX CKR stable transfectants and Scatchard transformation of the displacement data (FIG. 4B). […] In each case, the murine versions of these chemokines also bound, and with even greater affinity; the apparent Kd's are listed in FIG. 4B. […] In similar experiments, murine CTACK bound the receptor with a Kd of ˜9 nM (not shown). CTACK is also referred to as CCL27, ALP, ILC, and ESkine.

Experiment [3] has as its target T1, CCX CKR. As to the kind of experiment: Adhesion of HEK293-CCX CKR cells to immobilized ELC-stalkokine and competition by soluble chemokines. Format: cell-based. The note with it: 5-10 ug/ml soluble recombinant chemokine as competitor. The text has this: “Stalkokine” technology was used to :identify the chemokines bound by the CCX CKR. Briefly, immobilized native chemokines alone are incapable of capturing cells bearing cognate receptors (Imai et al., 1997, Cell 91:521). We have developed non-native chemokine structures, stalkokines, comprising chemokine moieties engineered as N-terminal attachments to extended modified mucins (Bazan et al., 1997, Nature 385:640). In one embodiment, stalkokines, harvested in the supernatants of HEK293 cells after transient transfection, are anchored to solid substrates via antibodies against carrier domains (e.g. poly-His epitopes) engineered to the carboxyl terminus, leaving the chemokine domain free to interact with candidate orphan receptors.
To determine ligand binding to CCX CKR, HEK293-CCX CKR cells were used to interrogate chemokine ‘stalkokines’ (SK), i.e., molecules in which discrete chemokine domains were engineered to be tethered to the end of an extended stalk structure. […] In all cases, nonadherent cells were removed by washing in PBS; remaining adherent cells were fixed with 1% glutaraldehyde, photoimaged and counted. […]

The target of experiment [4] is T1, CCX CKR. Nature of the experiment: Homologous competition binding of radiolabeled chemokine on HEK293-CCX CKR cells. Conditions: data not shown. The text has this:
Furthermore ELC-SK mediated adhesion was abolished in the presence of soluble native ELC as a competitor (FIG. 3A, top row). […] Moreover, radiolabeled ELC was used in a traditional homologous competition assay in the presence of increasing concentrations of unlabeled ELC. […] Taken together, the stalkokine-based adhesion and radiolabeled ligand binding/homologous competition assays indicate that CCX CKR is a new chemokine receptor that bound a novel compliment of chemokines.

For experiment [5], the target named is T1, CCX CKR. Nature of the experiment: Ligand induced internalization of CCX CKR in 293 F-CCR10 cells (FACS, anti-Flag). The class given is cell-based. The note with it: 100 nM chemokine, 37° C., 15 or 45 minutes. As for the experimental part: 293 cells transfected with the Flag-CCX CKR fusion plasmid (i.e., “293 F-CCR10 cells;” see Example 3) were incubated at 37° C. with varying concentrations of chemokines (ELC, SLC, TECK, murine CTACK and MCP4) for 15 or 45 minutes. Following incubation, the cells were washed and fixed with 3% paraformaldehyde for 15 minutes on ice. The cells were stained with anti-Flag M1 antibody, followed by a PE-conjugated anti-mouse secondary antibody. FACS analysis were then carried out to determine surface expression of the receptor.
Results: A reduction in antibody binding in the presence of ligand is an indication of ligand-induced internalization of the receptor.

Experiment [6] has as its target T1, CCX CKR. Nature of the experiment: Preliminary chemotaxis analysis of CCX CKR transfectants. Format: cell-based. Conditions: preliminary chemotaxis analyses, not shown.

B1: vMIPII: virally-encoded chemokine from the human Kaposi's sarcoma herpesvirus HHV8 (protein)
chain: LGASWHRPDKCCLGYQKRPLPQVLLSSWYPTSQLCSKPGVIFLTKRGRQVCADKSKDWVKKLMQQLPVTAR
On to B1, for which the “Binding to CCX CKR by displacement of 125I-labeled ELC” value (“Binding to CCX CKR by displacement” below) with CCX CKR [1] is “lower affinity”. The “Affinity for CCX CKR in multipoint competition, in words” value with CCX CKR [2] (competition against 125I-ELC) is reported as “moderate to low affinity”. Also, the “Affinity class of CCX CKR ligands (summary of Examples 4-6)” value (“Affinity class of CCX CKR ligands” for short) with CCX CKR [2] was “lower affinity”.

B2: TECK: thymus expressed chemokine, recombinant (protein)
chain: QGVFEDCCLAYHYPIGWAVLRRAWTYRIQEVSGSCNLPAAIFYLPKRHRKVCGNPKSREVQRAMKLLDARNKVFAKLHHNTQTFQAGPHAVKKLSSGNSKLSSSKFSNPISSSKRNVSLLISANSGL
Consider B2, for which the “Effect of soluble chemokine on ELC-SK mediated adhesion of HEK293-CCX CKR cells” value in the experiment with CCX CKR [3] is on record as “ablation of adhesion; also recorded: significant reduction”. For the same molecule, the “Homologous competition of radiolabeled TECK with cold TECK” value with CCX CKR [4] is recorded as “Nearly identical results”. The “Binding to CCX CKR by displacement” value with CCX CKR [1] was “bound well”. In addition, the “Affinity class of CCX CKR ligands” value with CCX CKR [2] is reported as “high affinity”. Also, in the experiment with CCX CKR [5], the “Internalization of the receptor” value is “Internalization of the receptor was observed”.

B3: SLC: secondary lymphoid-tissue chemokine, recombinant (protein)
chain: SDGGAQDCCLKYSQRKIPAKVVRSYRKQEPSLGCSIPAILFLPRKRSQAELCADPKELWVQQLMQHLDKTPSPQKPAQGCRKDRGASKTGKKGKGSKGCKRTERSQTPKGP
Take B3: the “Effect of soluble chemokine on ELC-SK mediated adhesion of HEK293-CCX CKR cells” value with CCX CKR [3] was “ablation of adhesion; also recorded: significant reduction”. Moreover, in the experiment with CCX CKR [1], the “Binding to CCX CKR by displacement” value is “bound well”. Also, the “Affinity class of CCX CKR ligands” value with CCX CKR [2] is “high affinity”. For the same molecule, the “Migration of CCX CKR transfectants in response to chemokine” value with CCX CKR [6] is “moderate migration”. Moreover, the “Internalization of the receptor” value with CCX CKR [5] was “Internalization of the receptor was observed”.

B4: mMIP-1gamma: murine chemokine MIP-1γ (CCF18) (protein)
chain: QITHATETKEVQSSLKAQQGLEIEMFHMGFQDSSDCCLSYNSRIQCSRFIGYFPTSGGCTRPGIIFISKRGFQVCANPSDRRVQRCIERLEQNSQPRTYKQ
For B4, the “Binding to CCX CKR by displacement” value with CCX CKR [1] was “moderately”. Besides, the “Affinity class of CCX CKR ligands” value with CCX CKR [2] was “lower affinity”.

B5: murine CTACK: murine chemokine CTACK, also referred to as CCL27, ALP, ILC, and ESkine (protein)
chain: LPLPSSTSCCTQLYRQPLPSRLLRRIVHMELQEADGDCHLQAVVLHLARRSVCVHPQNRSLARWLERQGKRLQGTVPSLNLVLQKKMYSHPQQQN
For the molecule B5, the “Affinity class of CCX CKR ligands” value in the experiment with CCX CKR [2] is recorded as “high affinity”. Also, in the experiment with CCX CKR [5], the “Internalization of the receptor” value is on record as “Internalization of the receptor was observed”.
